Reference: IntAct's records for PubMed 17699623

B1: Protein BZR1 homolog 1 (Oryza sativa subsp. japonica (Rice)), Q7XI96 (parent)
chain: MTSGAAAAGRTPTWKERENNKRRERRRRAIAAKIFTGLRALGNYNLPKHCDNNEVLKALCREAGWVVEDDGTTYRKGCKPPPSSAGGASVGMSPCSSTQLLSAPSSSFPSPVPSYHASPASSSFPSPSRIDNPSASCLLPFLRGLPNLPPLRVSSSAPVTPPLSSPTASRPPKIRKPDWDVDPFRHPFFAVSAPASPTRGRRLEHPDTIPECDESDVSTVDSGRWISFQMATTAPTSPTYNLVNPGASTSNSMEIEGTAGRGGAEFEFDKGRVTPWEGERIHEVAAEELELTLGVGAK
partner: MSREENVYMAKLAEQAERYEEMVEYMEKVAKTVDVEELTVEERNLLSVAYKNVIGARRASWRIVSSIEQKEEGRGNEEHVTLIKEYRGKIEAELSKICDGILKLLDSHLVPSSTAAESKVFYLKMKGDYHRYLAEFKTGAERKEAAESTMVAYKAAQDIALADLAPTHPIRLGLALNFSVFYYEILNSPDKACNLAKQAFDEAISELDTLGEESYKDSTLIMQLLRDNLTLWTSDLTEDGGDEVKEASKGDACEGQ

Variants of: B1
Settings: with 14333_orysj GF14C

Row | effect of a mutation on the interaction | Variant
1 | disrupting interaction | MTSGAAAAGRTPTWKERENNKRRERRRRAIAAKIFTGLRALGNYNLPKHCDNNEVLKALCREAGWVVEDDGTTYRKGCKPPPSSAGGASVGMSPCSSTQLLSAPSSSFPSPVPSYHASPASSSFPSPSRIDNPSASCLLPFLRGLPNLPPLRVSSGAPVTPPLSSPTASRPPKIRKPDWDVDPFRHPFFAVSAPASPTRGRRLEHPDTIPECDESDVSTVDSGRWISFQMATTAPTSPTYNLVNPGASTSNSMEIEGTAGRGGAEFEFDKGRVTPWEGERIHEVAAEELELTLGVGAK [S156G]
